B1: MEF2-activating motif and SAP domain-containing transcriptional regulator, residues 170 to 204; numbered along this chain, Q6ZN01 (parent)
chain: LKLEELTVSELRQQLRLRGLPVSGTKSMLLERMRG

Variants of: B1
Test: abundance fitness (aPCA) (normalised: wild type 0, dead -1); higher = more abundant; growth selection in yeast, the domain comes from the species named
Conditions: Homo sapiens

Abundance fitness of substitutions, site by site:
R34: T -0.045 | Q 0.156 | M -0.416 | W -0.556 | N 0.21 | V -0.244 | D -0.396 | A -0.118 | S -0.064 | C -0.021 | L -0.068 | I -0.323 | Y -0.316 | F -0.516 | E -0.089
R32: I -0.507 | V -0.368 | L -0.485 | Q -0.232 | T 0 | W -0.554 | S -0.483 | A -0.459 | G -0.326 | E -0.219 | C -0.611 | K -0.545 | M -0.369 | N -0.02
L29: S -0.545 | G -0.455 | I -0.749 | N -0.683 | W -0.594 | P -0.909 | E -0.22 | Y -0.469 | F -0.589 | D -0.51 | R -0.616 | M -0.338 | K -0.31 | Q -0.486 | T -0.297 | V -0.842
L30: Y -0.915 | W -0.456 | V -0.099 | P -0.507 | M -0.179 | G -0.493 | R -0.283 | D -0.376 | T -0.257 | S -0.601 | E -0.251 | C -0.197 | Q 0.004 | I 0.394 | A -0.356 | K -0.23
G35: R -0.436 | A -0.117 | L -0.074 | N -0.161 | F -0.295 | W -0.416 | S -0.262
M28: T -0.081 | Q 0.067 | W -0.839 | N -0.402 | S -0.36 | P -0.973 | V 0.05 | L -0.106
E31: N -0.238 | Q -0.227 | Y -0.124 | L -0.503 | G -0.279 | S -0.27 | V -1.16 | C -0.745 | W -0.755 | M -0.343 | T -0.348 | P -0.992
M33: E -0.146 | C -0.235 | L 0.206 | A -0.161 | G -0.343 | R -0.66 | S -0.34 | W -0.538 | Q 0.04 | T -0.525 | N -0.613 | F -0.516

Reference: the Human Domainome abundance scans (Beltran et al. 2025)
